Reference: publication PMC10786891, “Massively parallel profiling of RNA-targeting CRISPR-Cas13d”
Where a chain is given by its changes, count along the chain named. Numbers in names are those of the source.

T1: EsCas13d, nuclease-dead (Eubacterium siraeum, UniProt B0MS50, R295A;H300A;R849A;H854A)
T1 sequence: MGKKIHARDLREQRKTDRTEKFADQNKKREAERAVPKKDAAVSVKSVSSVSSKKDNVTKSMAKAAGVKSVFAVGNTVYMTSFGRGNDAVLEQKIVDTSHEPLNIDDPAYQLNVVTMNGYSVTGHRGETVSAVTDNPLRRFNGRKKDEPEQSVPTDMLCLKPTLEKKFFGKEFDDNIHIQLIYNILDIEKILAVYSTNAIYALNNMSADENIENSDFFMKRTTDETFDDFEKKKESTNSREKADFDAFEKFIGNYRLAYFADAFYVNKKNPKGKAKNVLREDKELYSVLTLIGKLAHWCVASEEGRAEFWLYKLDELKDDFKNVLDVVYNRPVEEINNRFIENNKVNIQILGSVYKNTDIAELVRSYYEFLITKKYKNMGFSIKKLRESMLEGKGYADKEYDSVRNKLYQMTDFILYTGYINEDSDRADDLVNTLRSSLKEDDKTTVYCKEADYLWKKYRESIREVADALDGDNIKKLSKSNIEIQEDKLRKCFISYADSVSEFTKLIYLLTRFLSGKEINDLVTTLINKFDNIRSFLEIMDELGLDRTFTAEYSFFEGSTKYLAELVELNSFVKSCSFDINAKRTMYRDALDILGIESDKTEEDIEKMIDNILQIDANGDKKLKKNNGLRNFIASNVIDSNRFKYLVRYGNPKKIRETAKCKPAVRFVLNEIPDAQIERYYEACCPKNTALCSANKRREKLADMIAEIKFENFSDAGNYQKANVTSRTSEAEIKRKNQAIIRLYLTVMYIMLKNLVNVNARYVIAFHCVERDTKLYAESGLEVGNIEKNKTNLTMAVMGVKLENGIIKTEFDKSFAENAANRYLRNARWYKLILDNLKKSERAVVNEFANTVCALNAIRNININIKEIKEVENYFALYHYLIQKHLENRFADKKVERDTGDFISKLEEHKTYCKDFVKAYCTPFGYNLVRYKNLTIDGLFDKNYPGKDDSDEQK

B1: target 1 insA 3' of 17,insA 3' of 5 (mixed)
RNA 1: CACCCGUGCAAAAAUGCAGGGGUCUAAAACUGAGCGGAUAACCUCUCUAUGG
RNA 2: GGGAAUGGAUCCACAUCUACGAAUUCGUACCAUAGAAGAGGUUAUCCGACUCACCGAGAUCGGAAGAGCACACGU
B2: target 1 insC 3' of 8,insA 3' of 5 (mixed)
RNA 1: B1 RNA 1
RNA 2: B1 RNA 2 with A37G, G38A, A39G, G41U, U43A, A44U, U45C
B3: target 1 insA 3' of 10,insG 3' of 7 (mixed)
RNA 1: B1 RNA 1
RNA 2: B1 RNA 2 with A37G, G38A, A39G, G41U, U43A, C47G, G48C, A49G
B4: target 1 insC 3' of 20,insC 3' of 3 (mixed)
RNA 1: B1 RNA 1
RNA 2: B1 RNA 2 with U33C, A34U, G35A, A36G, A49C, C50U, U51C
B5: target 1 insA 3' of 10,insG 3' of 9 (mixed)
RNA 1: B1 RNA 1
RNA 2: B1 RNA 2 with A37G, G38A, A39G, G41U, U43A, U45G, C46U, G48C, A49G
B6: target 1 C7U,A16G (mixed)
RNA 1: B1 RNA 1
RNA 2: GGGAAUGGAUCCACAUCUACGAAUUCGUACCAUAGGGAGGUUAUUCGCUCACCGAGAUCGGAAGAGCACACGU
B7: target 1 del20 (mixed)
RNA 1: B1 RNA 1
RNA 2: GGGAAUGGAUCCACAUCUACGAAUUCGUACCUAGAGAGGUUAUCCGCUCACCGAGAUCGGAAGAGCACACGU
B8: target 1 G5C,G12A (mixed)
RNA 1: B1 RNA 1
RNA 2: B6 RNA 2 with G36A, G40A, U45C, G47C
B9: target 1 insG 3' of 11,insG 3' of 6 (mixed)
RNA 1: B1 RNA 1
RNA 2: B1 RNA 2 with A37G, G38A, A39G, G41U, U42G, A49G
B10: target 1 insG 3' of 18,insA 3' of 10 (mixed)
RNA 1: B1 RNA 1
RNA 2: B1 RNA 2 with A36G, U45A, C46U, G48C, A49G
B11: target 1 insG 3' of 18,insU 3' of 4 (mixed)
RNA 1: B1 RNA 1
RNA 2: B1 RNA 2 with A36G, A49C, C50U
B12: target 1 complement block 7-9 (mixed)
RNA 1: B1 RNA 1
RNA 2: B6 RNA 2 with G36A, A43U, U44A, U45G
B13: target 1 insG 3' of 6,insC 3' of 1 (mixed)
RNA 1: B1 RNA 1
RNA 2: GGGAAUGGAUCCACAUCUACGAAUUCGUACCAUAGAGAGGUUAUCCGGCUCACCCGAGAUCGGAAGAGCACACGU
B14: target 1 A9G,C21U (mixed)
RNA 1: B1 RNA 1
RNA 2: B6 RNA 2 with C31U, G36A, A43G, U45C
B15: target 1 insG 3' of 2,insU 3' of 1 (mixed)
RNA 1: B1 RNA 1
RNA 2: B13 RNA 2 with G48C, C49U, U50C, C51G, C53U
B16: target 1 insG 3' of 2,insA 3' of 2 (mixed)
RNA 1: B1 RNA 1
RNA 2: B13 RNA 2 with G48C, C49U, U50C, C51G, C53A
B17: target 1 del20,del22 (mixed)
RNA 1: B1 RNA 1
RNA 2: GGGAAUGGAUCCACAUCUACGAAUUCGUACUAGAGAGGUUAUCCGCUCACCGAGAUCGGAAGAGCACACGU
B18: target 1 insA 3' of 17,insU 3' of 2 (mixed)
RNA 1: B1 RNA 1
RNA 2: B1 RNA 2 with A49C, C50U, U51C, C52U
B19: target 1 C7U,G13C (mixed)
RNA 1: B1 RNA 1
RNA 2: B6 RNA 2 with G36A, G39C
B20: target 1 insA 3' of 15,insU 3' of 2 (mixed)
RNA 1: B1 RNA 1
RNA 2: B1 RNA 2 with A37G, G38A, A49C, C50U, U51C, C52U
B21: target 1 insG 3' of 14,insC 3' of 14 (mixed)
RNA 1: B1 RNA 1
RNA 2: GGGAAUGGAUCCACAUCUACGAAUUCGUACCAUAGAGAGCGGUUAUCCGCUCACCGAGAUCGGAAGAGCACACGU
B22: target 1 insU 3' of 12,insA 3' of 2 (mixed)
RNA 1: B1 RNA 1
RNA 2: B13 RNA 2 with A43U, U44A, C45U, G47C, C53A
B23: target 1 del17,del19 (mixed)
RNA 1: B1 RNA 1
RNA 2: B17 RNA 2 with U31C, G33A
B24: target 1 insA 3' of 4,insA 3' of 4 (mixed)
RNA 1: B1 RNA 1
RNA 2: B13 RNA 2 with G48C, C49A, U50A, C51U, A52C, C53A
B25: target 1 insC 3' of 10,insC 3' of 3 (mixed)
RNA 1: B1 RNA 1
RNA 2: B13 RNA 2 with A43C, U44A, C45U, G47C, A52C, C53A
B26: target 1 C6U,G13U (mixed)
RNA 1: B1 RNA 1
RNA 2: B6 RNA 2 with G36A, G39U, U45C, C46U
B27: target 1 C2A,C4A (mixed)
RNA 1: B1 RNA 1
RNA 2: B6 RNA 2 with G36A, U45C, C48A, C50A
B28: target 1 C6G,C22G (mixed)
RNA 1: B1 RNA 1
RNA 2: B6 RNA 2 with C30G, G36A, U45C, C46G

Target: T1, EsCas13d, nuclease-dead
Assay: crRNA (strand 1, pre-loaded); Mg2+; 40 mM Tris-HCl pH 7.5, 150 mM NaCl, 6 mM MgCl2, 1 mM DTT, 0.1% Tween-20, 0.2 mg/ml BSA; 25 C; 10 min per concentration, then washed
Conditions: tags: His6-TwinStrep-SUMO cleaved; N-terminal SNAP kept (SNAP-Surface 488); label: 3' end held by stalled T7 RNA polymerase

Binder | Kd [nM]
B1 | 10.6 ± 1.1
B2 | 13.2 ± 1.2
B3 | 12.4 ± 0.7
B4 | 8.5 ± 0.4
B5 | 18.3 ± 0.8
B6 | 29.9 ± 2.6
B7 | 31 ± 1.6
B8 | 8.6 ± 0.4
B9 | 39 ± 4
B10 | 64 ± 6
B11 | 63 ± 4
B12 | 6.54 ± 0.23
B13 | 13.1 ± 0.9
B14 | 9 ± 0.5
B15 | 9.9 ± 0.9
B16 | 10 ± 0.8
B17 | 9 ± 1.2
B18 | 15.4 ± 1.6
B19 | ~70
B20 | 6.5 ± 0.4
B21 | 34 ± 6
B22 | 7 ± 0.4
B23 | 50 ± 5
B24 | 5.91 ± 0.24
B25 | 20.2 ± 3.1
B26 | 38 ± 5
B27 | 10.3 ± 0.5
B28 | 35 ± 5
